In patent publication US20230242610A1:
Blank lines part the entries; values can stand above or below the substance they belong to.

Key:
[1] = target: mTMEM16A (mouse) (UniProt Q8BHY3); assay: cell-based or functional assay
[2] = target: TMEM16A-GFP (mouse) (UniProt Q8BHY3); assay: SiMPull, GFP photobleaching step count (stoichiometry)

Sequence of mTMEM16A (mouse) (Q8BHY3 whole entry): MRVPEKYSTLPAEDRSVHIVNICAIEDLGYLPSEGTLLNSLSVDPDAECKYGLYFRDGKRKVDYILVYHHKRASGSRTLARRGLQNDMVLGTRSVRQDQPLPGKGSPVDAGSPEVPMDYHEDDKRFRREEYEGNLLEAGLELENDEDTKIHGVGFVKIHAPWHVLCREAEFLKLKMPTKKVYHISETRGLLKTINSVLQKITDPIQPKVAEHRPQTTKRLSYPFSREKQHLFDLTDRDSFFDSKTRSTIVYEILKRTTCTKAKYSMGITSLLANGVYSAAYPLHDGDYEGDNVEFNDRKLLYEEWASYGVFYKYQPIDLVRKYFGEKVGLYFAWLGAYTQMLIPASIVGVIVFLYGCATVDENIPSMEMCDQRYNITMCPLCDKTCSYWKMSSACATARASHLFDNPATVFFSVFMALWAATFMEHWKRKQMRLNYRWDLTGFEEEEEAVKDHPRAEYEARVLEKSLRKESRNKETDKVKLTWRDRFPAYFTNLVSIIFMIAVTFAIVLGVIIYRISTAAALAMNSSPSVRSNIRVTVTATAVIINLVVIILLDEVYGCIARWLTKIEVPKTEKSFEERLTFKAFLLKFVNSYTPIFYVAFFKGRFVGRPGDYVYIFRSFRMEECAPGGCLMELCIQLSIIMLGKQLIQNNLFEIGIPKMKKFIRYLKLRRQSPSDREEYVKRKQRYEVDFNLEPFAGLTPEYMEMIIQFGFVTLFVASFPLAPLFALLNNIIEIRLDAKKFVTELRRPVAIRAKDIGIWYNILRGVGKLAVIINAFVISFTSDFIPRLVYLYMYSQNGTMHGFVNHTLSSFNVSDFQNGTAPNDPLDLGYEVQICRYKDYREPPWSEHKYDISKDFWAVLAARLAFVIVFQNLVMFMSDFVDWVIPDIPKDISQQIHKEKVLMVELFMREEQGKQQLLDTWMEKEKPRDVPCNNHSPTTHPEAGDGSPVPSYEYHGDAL

- current density at +100 mV, HEK293T co-expressing TMEM16A and KCNE1ΔCt [1]: 25 pA/pF
Substance: KCNE1ΔCt (from UniProt P15382 1-66)

- current density at +100 mV, HEK293T co-expressing TMEM16A and KCNE1 S38G [1]: 6.96 pA/pF
Substance: KCNE1S38G (from UniProt P15382 1-129)

- current density at +100 mV, HEK293T co-expressing TMEM16A and KCNE1 T7I [1]: 24.7 pA/pF
Substance: KCNE1 T7I (from UniProt P15382 1-129)

- current density at +100 mV, HEK293T co-expressing TMEM16A and KCNE1ΔNt16 [1]: 25.4 pA/pF
Substance: KCNE1ΔNt16 (from UniProt P15382 16-129)

- current density at +100 mV, HEK293T co-expressing TMEM16A and KCNE1ΔNt30 [1]: 25.2 pA/pF
Substance: KCNE1ΔNt30 (from UniProt P15382 30-129)

- share of pulled-down spots with one-step photobleaching of TMEM16A-GFP [2]: 20%
- share of pulled-down spots with three-step photobleaching of TMEM16A-GFP [2]: 10%
- share of pulled-down spots with two-step photobleaching of TMEM16A-GFP [2]: 70%
Substance: HA-KCNE1 (from UniProt P15382 1-129)

- current density at +100 mV, HEK293T co-expressing TMEM16A and KCNE1ΔNt [1]: 6.56 pA/pF
Substance: KCNE1ΔNt (from UniProt P15382 43-129)

- current density at +100 mV with 1 mM BAPTA, HEK293T, TMEM16A co-expressed with KCNE1 (against TMEM16A alone) [1]: 22 pA/pF
- current density at +100 mV, whole-cell patch clamp, HEK293T co-expressing both proteins [1]: 18.1 pA/pF
Substance: hKCNE1 (from UniProt P15382 1-129)
